Data reported in patent US20130202609A1 (Novartis, published 2013).

Biological target: T1, 150 kDa C-terminal fragment of wild-type GAS57 (Streptococcus pyogenes (M1 SF370))
T1 construct: also called 150 kDa fragment; 150.5 kDa fragment
T1 chain: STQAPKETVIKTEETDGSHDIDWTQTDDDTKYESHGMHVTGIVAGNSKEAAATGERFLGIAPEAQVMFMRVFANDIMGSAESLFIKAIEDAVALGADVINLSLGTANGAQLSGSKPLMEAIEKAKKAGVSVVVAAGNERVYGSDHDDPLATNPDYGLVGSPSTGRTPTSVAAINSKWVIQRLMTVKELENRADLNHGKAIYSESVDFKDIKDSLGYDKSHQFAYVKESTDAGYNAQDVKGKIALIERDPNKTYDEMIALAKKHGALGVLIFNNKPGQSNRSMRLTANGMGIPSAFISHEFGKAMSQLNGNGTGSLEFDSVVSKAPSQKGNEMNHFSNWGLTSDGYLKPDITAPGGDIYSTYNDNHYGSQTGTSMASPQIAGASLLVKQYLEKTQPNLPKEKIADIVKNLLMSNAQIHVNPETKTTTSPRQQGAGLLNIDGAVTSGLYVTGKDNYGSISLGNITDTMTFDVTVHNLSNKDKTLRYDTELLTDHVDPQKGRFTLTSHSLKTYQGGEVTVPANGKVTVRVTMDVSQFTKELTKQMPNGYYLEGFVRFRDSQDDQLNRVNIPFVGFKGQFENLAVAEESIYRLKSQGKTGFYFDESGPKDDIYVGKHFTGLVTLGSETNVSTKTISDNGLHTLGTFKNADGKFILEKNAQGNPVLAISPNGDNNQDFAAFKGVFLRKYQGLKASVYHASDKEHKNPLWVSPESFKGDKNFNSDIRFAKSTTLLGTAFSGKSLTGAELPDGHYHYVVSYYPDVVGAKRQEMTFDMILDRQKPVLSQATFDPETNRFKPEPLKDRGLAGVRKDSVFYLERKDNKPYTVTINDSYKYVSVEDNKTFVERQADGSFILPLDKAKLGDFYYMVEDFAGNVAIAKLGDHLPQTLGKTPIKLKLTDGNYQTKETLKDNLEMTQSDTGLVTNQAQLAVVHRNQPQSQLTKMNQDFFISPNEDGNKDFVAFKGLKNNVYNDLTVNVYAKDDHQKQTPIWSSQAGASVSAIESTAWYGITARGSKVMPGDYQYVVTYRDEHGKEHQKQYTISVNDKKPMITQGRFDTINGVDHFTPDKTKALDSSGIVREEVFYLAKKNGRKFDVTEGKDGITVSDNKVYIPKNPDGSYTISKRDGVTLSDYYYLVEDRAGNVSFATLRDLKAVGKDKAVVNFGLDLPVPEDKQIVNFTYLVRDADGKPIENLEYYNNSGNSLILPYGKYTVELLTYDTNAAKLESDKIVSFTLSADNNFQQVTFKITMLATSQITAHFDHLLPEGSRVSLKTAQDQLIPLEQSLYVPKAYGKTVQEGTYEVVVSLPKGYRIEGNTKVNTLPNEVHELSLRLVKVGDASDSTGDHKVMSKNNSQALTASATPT
Assay: co-purification on Ni-chelating affinity column and gel filtration; SDS-PAGE

B1: 23 kDa N-terminal fragment of wild-type GAS57 (other)
chain: ADELSTMSEPTITNHAQQQAQHLTNTELSSAESKSQDTSQITLKTNREKEQSQDLVSEPTTTELADTDAASMANTGSDATQKSASLPPVNTDVHDWVKTKGAWDKGYKGQGKVVAVIDTGIDPAHQSMRISDVSTAKVKSKEDMLARQKAAGINYGSWINDKVVFAHNYVENSDNIKENQFEDFDEDWENFEFDAEAEPKAIKKHKIYRPQ
notes: also called 23 kDa fragment; 23.4 kDa fragment
binding result: binds
